We go through one molecule from PMC3323579, “Direct Ubiquitin Independent Recognition and Degradation of a Folded Protein by the Eukaryotic Proteasomes-Origin of Intrinsic Degradation Signals” (PLoS ONE, 2012).

No end group written: not given here. *: point of attachment. Biotin = O=C1N[C@H]2[C@H](CS[C@H]2CCCCC(=O)*)N1

The assay has as its target yeast 26S proteasome (RPN11-3XFLAG) (yeast, UniProt P43588 1-306). In words: ELISA; competition: 8 nM apoMb on immobilised 26S proteasome with peptides 100 µM to 0.01 µM; 100 nM MG132 in all incubations; Ki from a one site binding fit. As to conditions: both partners purified. On the technique in general: An ELISA detects its analyte on a solid surface through an enzyme-linked reagent.

As to Biotin-EWQLVLHVWAKVEAD [A-helix peptide of myoglobin], the inhibitory constant (Ki) (commonly the dissociation constant of the complex between target and ligand, obtained from inhibition or displacement) turned out to be 800 ± 400 nM.
